For assay [1], the target named is human big endothelin-1 (human) (UniProt P05305).
Assay [2] shares this target. The source holds these as a separate data set.
Assay [3] has the same target. The source holds these as a separate data set.

Sequence of UniProt P05305 (P05305 53-90 limits assumed): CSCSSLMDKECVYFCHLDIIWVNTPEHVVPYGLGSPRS

“secreted human ECE (extracellular domain of human ECE fused to the signal peptide of human t-PA) (enzyme)” had a volume-based activity of the secreted ECE (µunits/ml of cell culture medium) in assay [1] of under 10. In turn, “endothelin converting enzyme (ECE-1) purified from FBHE bovine endothelial cells” gave a Spec. activity [µU/mg] in assay [2] of 15100 µU/mg.

B1: recombinant membrane-bound human ECE (complete human ECE expressed from pcDNA3neo in mammalian cells, colony 38) (enzyme)
chain: MSTYKRATLDEEDLVDSLSEGDAYPNGLQVNFHSPRSGQRCWAARTQVEKRLVVLVVLLAAGLVACLAALGIQYQTRSPSVCLSEACVSVTSSILSSMDPTVDPCHDFFSYACGGWIKANPVPDGHSRWGTFSNLWEHNQAIIKHLLENSTASVSEAERKAQVYYRACMNETRIEELRAKPLMELIERLGGWNITGPWAKDNFQDTLQVVTAHYRTSPFFSVYVSADSKNSNSNVIQVDQSGLGLPSRDYYLNKTENEKVLTGYLNYMVQLGKLLGGGDEEAIRPQMQQILDFETALANITIPQEKRRDEELIYHKVTAAELQTLAPAINWLPFLNTIFYPVEINESEPIVVYDKEYLEQISTLINTTDRCLLNNYMIWNLVRKTSSFLDQRFQDADEKFMEVMYGTKKTCLPRWKFCVSDTENNLGFALGPMFVKATFAEDSKSIATEIILEIKKAFEESLSTLKWMDEETRKSAKEKADAIYNMIGYPNFIMDPKELDKVFNDYTAVPDLYFENAMRFFNFSWRVTADQLRKAPNRDQWSMTPPMVNAYYSPTKNEIVFPAGILQAPFYTRSSPKALNFGGIGVVVGHELTHAFDDQGREYDKDGNLRPWWKNSSVEAFKRQTECMVEQYSNYSVNGEPVNGRHTLGENIADNGGLKAAYRAYQNWVKKNGAEHSLPTLGLTNNQLFFLGFAQVWCSVRTPESSHEGLITDPHSPSRFRVIGSLSNSKEFSEHFRCPPGSPMNPPHKCEVW
For B1, the Spec. activity (µU/mg protein) (µU/mg protein) in assay [3] is 12000.

(Values after patent US6066502.)
